Source: patent US20230133775A1

Biological target: Leucine-rich repeat-containing protein 15 (LRRC15) on LRRC15-expressing cells (UniProt Q8TF66)
Assay: cell-based or functional assay

Leucine-rich repeat-containing protein 15 (LRRC15) on LRRC15-expressing cells, sequence (Q8TF66 22-581 limits assumed): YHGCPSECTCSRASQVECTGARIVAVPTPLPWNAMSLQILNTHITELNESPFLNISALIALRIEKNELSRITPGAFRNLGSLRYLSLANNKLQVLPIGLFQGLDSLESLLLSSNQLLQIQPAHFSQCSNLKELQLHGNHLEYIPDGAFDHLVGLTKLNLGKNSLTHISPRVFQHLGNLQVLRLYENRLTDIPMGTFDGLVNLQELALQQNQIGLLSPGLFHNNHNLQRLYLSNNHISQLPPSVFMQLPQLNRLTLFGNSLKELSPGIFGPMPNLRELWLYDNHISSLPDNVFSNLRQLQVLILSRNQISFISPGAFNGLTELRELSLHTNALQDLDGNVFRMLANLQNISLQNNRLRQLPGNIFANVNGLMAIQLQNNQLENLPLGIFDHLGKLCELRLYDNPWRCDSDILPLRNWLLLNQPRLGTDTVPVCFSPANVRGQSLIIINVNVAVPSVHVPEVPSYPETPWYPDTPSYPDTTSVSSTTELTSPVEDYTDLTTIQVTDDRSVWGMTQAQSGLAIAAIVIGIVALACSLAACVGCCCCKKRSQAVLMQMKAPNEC

non-specific low fucose isotype control (IgG1-LF) (antibody)
target cell death in the ADCC assay with NK92-CD16 effector cells: < 30%
